# Test results from the domain aggregation screens of Martell et al. (2025).
# Assay: soluble fraction after stress (log2 fold change); higher = more stays soluble; pooled small domains, quantitative proteomics
# Conditions: stress: 75 degC
# 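Also: 20 min heating vs room temperature control held 20 min.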
row,Sequence,soluble fraction (log2)
1,HMTEKIVFNIDGQTGRIDKILADFMTGTSRSQIQAWVKDGNLMVNDKAVKSNYKVQDGDLLELTIPEPEQ,-0.284
2,HMTELIEDYVELIGDLIRHRGEARAADIANRMAVSQATVSKMIRRLNELGLVTSKPYRSLFLTDEGQKMAE,-0.363
3,HMTELLTPKQRQVFELALREGYYDVPRRTSITEMARLLGVAKSTLSAQMHRMEATVMSTFAEEIRKQ,-2.01
4,HMTENIPPVKIEEMRQKWQDIVLLHGVTSGRKIKSGQATYIWLYRNDQNWLLTFNSRHLSQPQV,0.232
5,HMTEPKILTAEESQRLDLILVQQWPELGRRALRELVQQGGVRINGELALKAGQYVQAGERVEVAVP,0.232
6,HMTEQKNNEQQNAVNEKKQALKQLMEKGKEKGSLSYNEVNALLDKLEFTEDQKAIVYDQLHSEDIELQ,0.3
7,HMTEQLTLVGKTGVTTTDLRPSGKVEVDGKRYDAVADNGAFISKGAHIKVVRYVTGQVYVVPTD,-0.0624
8,HMTERIRLHDDIGSWVEKHGATRSALIPVLQGIQRSYNEISEYAMQEVADRLDIHPVEVYSVVSFYSF,0.307
9,HMTESFEFTMNDLVQNNLIMGSGAKERRIAVGEALGIGYTNAKQFLSRLNHYGITRKEFDDEIEKVNQN,-0.311
10,HMTETEIVIGGKYRHYKGGEYELVSIVKHSETLEELVIYKSLSTGEMWARPKSLFVGLVDGQPRYTL,-2.22
11,HMTETIPVSERLFRYLFEEKGKRVQKIQQTSHARVRMERSPYSVVVSGTKDAVEAAMESLKATEKELLEA,-0.161
12,HMTETPDDLLAALKKNKKAQATFDAFSPSNKKEYILWITEAKTEATRTKRLETAIEWMSEGKARNW,-0.579
13,HMTETTTVPKLKGLTKDEAEDAAKSSKIKLEFIDEISKTVEAGVIIKQEKDEGETVNAGDTVKVYVSIGT,0.472
14,HMTEWSIHEVAQRSGVTTRTLRHYDAIGILSPTRTGANGYRYYGPEALVRLQRILLLRDLGLALSDIAE,-3.82
15,HMTEYFTIESQEGERIDRYLSEELEDKSRSYIQKLIRDGHVLVDGKTVKAGYRLVAGDNIAITLPEI,-0.132
16,HMTFAPTAIPSLTRPMEELMSWSFTPNEAFILSRINGLWDVRSIAKISPFPEGEVLRVFEKLHDGGLIRW,-3.6
17,HMTFNEPSPKEIMDYSLSRGYKVDADAFIDFYRGKAKAYGKEGLWLDGRGRLVKDWRAKLRVVWFKDENKL,-1.36
18,HMTGDIGAEAAKAAALAHAGVTESQTAKMKVDRDWDDGRLEYDVEFDVGRTEYEYTIDGVTGAVLEYEQDI,0.0252
19,HMTGDIIKQERKKKNLTQIELAKKVGISRNALINYEAGTRIPPISVQLKLADVLGIDILDLK,-1.64
20,HMTGDISRALDQLPADMRTVLILYALEKQRYEDIAQITGVSVGTVKSRLNRARQKLAAILANQREQNE,-1.49
21,HMTGDNQTIGGGGFHHVAIRAHDFDASVKFYGETLGFREKIAWGEGDKRAIMMDTGDGNYIEIF,0.0318
22,HMTGEDIKKVILREYAREKSLLSIFHELSKVNSNVTLEVIKDIITNIDKLPNDLLQYFKEESSFYQKNKN,-1.46
23,HMTGGIWVQIQGAVERPGVYSLPRDSRLKDLLEAAGGFGRDADTEKVNQAARLEDGAMYRVPRQGEG,0.49
24,HMTGGLLVHVAGAVGAPGVVSLPEGARVVDAIEAAGGAREDADTDQLNLARPVVDGEQVRVPVVGEVLE,-0.00946

row,Sequence,soluble fraction (log2)
1,HMTGINMSYEEYKAMADIIVPLIKAGHSPYHIVTNHPELNISEKTLYNYIENGIFREFGLLDINL,-1.59
2,HMTGIRVYPNPTSSELRFSVATDAALYDATGARLRVVRGSDMMDIRDLASGTYYVRFADGSTQSVVVT,-0.755
3,HMTGKLGKIILQPKQTVYGITKKYQISESELRRLNPQLDSHLKIGDEVILPAENIKKFGGNQPVAVS,0.268
4,HMTGKTTLEYLNPLLERGIPVWDYLAKASGKAKEEVQEMVSKGLVPGAEAAKAIADYMGAEFAGSMA,-0.0343
5,HMTGKVKWYDADKGFGFVTEDGGRDVYVRKSALPQGVETLKAGQRLEFGIAEGRRGPQALSVR,-0.0771
6,HMTGLFSPTEQTRHSKTGATLYSVKLAERIERNAFQSLKKRAKEHDGYYSSFTRSFLFDTPEDAEAFRGT,-0.371
7,HMTGMEASLSKLLQGEQFADLRKALIDKGIRKLEAFKRLNLWVFMNRNRLYSIGQRQTVYSTLQRALASE,-0.0934
8,HMTGREIDQLFSVVNDLKAKGVGMVFISHHLDEIARIADSVSVLRDGGFVAEVPASTPEKKLVTLMVGRDI,-0.228
9,HMTGWINVDKNWYYMNNSGSMARGMINVNNVSYYLDENGKMLSNTTVNVNGTDYRIDASGAMSQI,-0.182
10,HMTHEIKIKSHSLFASEGTKYQWYLNNIKINDATSQELEITSPGIYKLEMTNFDGDVIEKQIIVGLTNS,-1.91
11,HMTHHGHSIKRIRDMLGIKQETLAAELNMTQQAFSKLEQKEQIEDEMLDKIAKILHVSTEALKT,0.0102
12,HMTHPAHLARIGALIRSARQHEGLTQAQLAELLGTSQSAIHRIEQGGQNITLDMLTRISAALDSEIVTIG,-1.51
13,HMTHPQVEAYLDDLARMLADIDPGERDDILASVREHLDAEIAAGHGSDAVVNATLLRLGPPEQVAAAARTN,-0.0131
14,HMTIAFPSNDVDAVVGYFESRGFDRTASISTATVILQQAKIDGVKVFELIDTLQGMDKVQLSYIVTEILN,0.0608
15,HMTIATLGERIRKLRKERGLTLAELAGDKLSKGMLSLIENNRAKPSMESLEYIAKRLGVEPAELLE,0.0696
16,HMTIENTDTFLETLWEQVQRASVDENGIITSRVLIWDEGTKLDEILSWFDKRHSLGALYLQFG,-2.66
17,HMTIFGWQTDETGKWYRNADGTFFEAGWKEIDGAKYYFDENGYVKTGWLELDGKDYYFDEEGRYDSSKVR,0.299
18,HMTIGLLISKARTNSGLTQAELATRAGTSQAAIARYESDRVSPSVSTLERVLRAAGEELVISSS,-0.209
19,HMTINPFSTLAVRELEILHYLLNGHRTKEIATNLGLKMNTVSTIKSNIFEKVKADSFTHLLQLAHVHQIS,-1.07
20,HMTIQNSILDEIPNIGASRKRAILEAFGSVHRLRKASPEMISAKVEGIGPEMAQAIHDYLVKHPAT,0.066
21,HMTISAQAITPRLEVIKNFVLMEEWDAAQTQLEKLRSFTEIWSLDPLFSAMKKKDGQKISDWITGFIKDNM,-2.39
22,HMTISDEAMQAGRDAFIQALVAMGAEKNADAMASIEKALSADPGNKEYLATRDLIKKSMGMKK,0.981
23,HMTISGSDLKAQREALNIPLERIAKETRIRLSILQDLEDEEYSELSSSAQTKGFLRLYADYLSSHKQRLG,-1.06
24,HMTITDDETHKVLEEGASRMSEGLTFRDLVDLDRLHLTARGVIQKVLNENRIDADVDTIANMAQKLVARVS,-0.0881

row,Sequence,soluble fraction (log2)
1,HMTKAEVLLDLQQRIISEEFLPGSWLVERDLSSEYGLSRTPIREILNKLVILGLISVQKNRGYQVR,-1.29
2,HMTKAILTANDVRNGDIVFWTADQRWSTSIDDAAIGYGKDDTDQLADAGKQAEAANTVVGAYLIALR,-0.102
3,HMTKASEELYFRLKEELGTGVIVEHKKYGEGVVTQLDDRLVHIMFQDDTLRMMDLKILANAGLLKVK,-1.57
4,HMTKDYVVIYEGLAQTEAVEILGKLQEMGVSAKVDHNDSILVLKDEEDQIRMALATEGYPKS,0.158
5,HMTKEEKEKREKYEKLMKKADELVTAKNHKEAVTVLGQAKAYANPQQTKEIEEKIKAQTAELDKG,0.548
6,HMTKGVQMFAEQLKRTRQSRHYSQAEIASKLGVTQQAIAKWETGVSTPSPTSISKLSDILGISTDVLLKGA,0.0396
7,HMTKIAFPQMLNKYRLQKNLTMEQLAEEVGKTKSTISKWEAGTRSPKIYEIEEIAKYFGVEPQTMMF,-0.107
8,HMTKINAPMPGNILDVKVNVGDHVEANQLVLMLEAMKMENEIFTPVAGTVVGVHVKKGDSVNSDDLLISI,-0.512
9,HMTKKEFLDILTESLAGNVPASEIEENIRYYKDYIENGEESEEKALEQLGDPHLIARTIIDSFIA,-0.0899
10,HMTKLLSALQADKFAKKLANDTNFGSNFARMGESAMDFTNRLVEELQRDEGKVANYMPYLTKLGF,0.204
11,HMTKLSPKEKSILHIIGDNAGIKSGQIAKRLDIPSPTVKRILSDLVSQNLIEKFGTGPGTNYSI,-0.0131
12,HMTKLTTDERSVYLHIQNKPGVSASSIREALGYKKSKLTSILAQLLEVHKIIDTEGTGKSLKYIL,0.0994
13,HMTKMTPNRQLVLSVLQSSGKPLSAYELLDRLREQGTQWQPPTAYRALDYLVEQGLAHYLQSIQKYV,-1.73
14,HMTKNEFLASFQNELQKRHIPDWEDVVSEYEQHFALKQADGFSEEEIAAKLGAPAELAAQFEA,0.155
15,HMTKQIILVHVAGKVKKPDVYPLLQGSRVADAIKAAGGAKKGVELNDINLARVLIDGEQVFVGYVPE,-2.2
16,HMTKQRSAIMNLLAERNTPLTAEEIGEAIAPSYPKLALSTVYRNLELFTNAGLLEKSFFQDGITRYSLTK,-0.976
17,HMTKRTEPSILQNFDTEIAELIAKNRGISIMDALRIFLASKTHEMLENDEMKLWYFSPLAVFDMWENE,0.318
18,HMTKSIDFDFREDGVYIKADKDVTIVDIVTKIDLRRIQSVDLTKIKQMLEIGSLDNWIKIAEPQMEK,-2
19,HMTKSTLQRQKIIADLIESGNISSQNQLKGLLKKNSLLITQATLSRDLSELGAIKKRQKDGLLVYVLPK,-0.365
20,HMTKTKADKIDYAIGDSGTEPPTEDKWTDLAHLPLIKAGQFQWTRRTEYYSDGSTAVSYNIAKSE,0.096
21,HMTKYKEIVDQLRTNIYEGVFPALSKLPEQTALAKRFQTSRMTIQKALNQLKQEGLISTKRGHGTYVNSAT,-0.74
22,HMTKYVEGQKYVFEFRDGTITIGTYLRTGEGNIYIKDLSGEDIYIPKIMIAQIHLATDDNVKGDEFWF,-1.26
